Laboratory results from patent US20180044393A1 (INSERM INSTITUT NATIONAL DE LA SANT ET DE LA RECHERCHE M …, published 2018).
Substitutions are numbered along the chain they refer to. Positions of bridges follow the written chain, without caps; N, C: chain ends. No end group written: not given here. *: point of attachment. 125I = [125I]*

Assays:
Test in all cases: 125I-OxA binding on CHO-S cells expressing the OX1R mutant
OX1R V319A = molecular target: T1, OX1R V319A (human, UniProt O43613 1-425)
T1 construct: site-directed mutant (TM6) stably expressed in CHO-S cells; not shown: YFP from vector pEYFP-N2 fused at the C-terminus
T1 chain: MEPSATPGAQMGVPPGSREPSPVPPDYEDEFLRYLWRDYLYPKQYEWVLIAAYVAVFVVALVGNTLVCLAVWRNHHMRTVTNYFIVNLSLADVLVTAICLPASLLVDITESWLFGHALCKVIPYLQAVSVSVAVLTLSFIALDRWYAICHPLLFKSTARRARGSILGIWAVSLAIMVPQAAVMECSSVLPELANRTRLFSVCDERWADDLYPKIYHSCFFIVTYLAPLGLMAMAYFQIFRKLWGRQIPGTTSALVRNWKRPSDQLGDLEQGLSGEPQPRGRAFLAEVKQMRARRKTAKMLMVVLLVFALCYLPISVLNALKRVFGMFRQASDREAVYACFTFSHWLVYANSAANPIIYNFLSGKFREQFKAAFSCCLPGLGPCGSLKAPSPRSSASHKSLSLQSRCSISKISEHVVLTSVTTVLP
Experimental: (§1) CHO—S cells expressing recombinant native or mutated OX1R were grown as previously described (El Firar et al., 2009) and maintained at 37° C. in a humidified 5% CO₂/air incubator. ¹²⁵I-orexia-A (74 TBq/mmol) was prepared as previously described (El Firar et al., 2009). […] Free peptides were removed by 2 cell washing cycles with PBS. […] Data were analyzed using the GraphPad software (http://www.graphpad.com).
(§2) All residues of OX1R fulfilling this condition were mutated to alanine by site-directed mutagenesis (Table II).

OX1R Y211A = molecular target: T2, OX1R Y211A (human, UniProt O43613 1-425)
T2 construct: site-directed mutant (TM5) stably expressed in CHO-S cells; not shown: YFP from vector pEYFP-N2 fused at the C-terminus
T2 chain: T1 chain with Y211A, A319V
Experimental: as §1, §2

OX1R N318A = molecular target: T3, OX1R N318A (human, UniProt O43613 1-425)
T3 construct: site-directed mutant (TM6) stably expressed in CHO-S cells; not shown: YFP from vector pEYFP-N2 fused at the C-terminus
T3 chain: T1 chain with N318A, A319V
Experimental: as §1, §2

OX1R T341A = molecular target: T4, OX1R T341A (human, UniProt O43613 1-425)
T4 construct: site-directed mutant (TM7) stably expressed in CHO-S cells; not shown: YFP from vector pEYFP-N2 fused at the C-terminus
T4 chain: T1 chain with A319V, T341A
Experimental: as §1, §2

OX1R I98A = molecular target: T5, OX1R I98A (human, UniProt O43613 1-425)
T5 construct: site-directed mutant (TM2) stably expressed in CHO-S cells; not shown: YFP from vector pEYFP-N2 fused at the C-terminus
T5 chain: T1 chain with I98A, A319V
Experimental: as §1, §2

Measured: binding result

QPLPDCCRQKTCSCRLY(125I)ELLHGAGNHAAGILTL (peptide, UniProt O43612 34-66, looked up, disulfide 6-12, 7-14; not fully specified (residue 1, C-terminus), mature; also called OxA) [125I-orexin-A]
binds: all assays above
